US20190300577A1

Columns and labels:
[1] = target: recombinant human P-selectin Fc chimera (human) (UniProt P16109); test: Biacore; biotinylated glycopeptide on streptavidin chip, P-sel-Ig (2.5 to 60 µg/mL) flowed
[2] = target: recombinant mouse P-selectin Fc chimera (mouse) (UniProt Q01102); test: Biacore; biotinylated glycopeptide captured on a streptavidin chip, mP-sel-Ig flowed over (trace shown at 20 µg/ml) [lower middle panel 'mP-sel-Ig (20 µg/ml)' (E in the legend]
selectins on endothelium = test: cell-based or functional assay
[3] = target: recombinant human P-selectin Fc chimera (human) (UniProt P16109); test: flow cytometry; inhibition of human P-selectin Fc chimera binding to human peripheral blood PMN
[4] = target: recombinant human P-selectin Fc chimera (human) (UniProt P16109); test: flow cytometry; inhibition of human P-selectin Fc chimera binding to human U-937 cells
[5] = target: recombinant mouse L-selectin Fc chimera (mouse) (UniProt P18337); test: flow cytometry; inhibition of mouse L-selectin Fc chimera binding to murine neutrophils
[6] = target: recombinant mouse P-selectin Fc chimera (mouse) (UniProt Q01102); test: Biacore; biotinylated glycopeptide on streptavidin chip, P-sel-Ig flowed
[7] = target: recombinant human P-selectin Fc chimera (human) (UniProt P16109); test: as above
[8] = target: recombinant human L-selectin Fc chimera (human) (UniProt P14151); test: flow cytometry; inhibition of human L-selectin Fc chimera binding to human U-937 cells
[9] = target: recombinant mouse P-selectin Fc chimera (mouse) (UniProt Q01102); test: flow cytometry; inhibition of mouse P-selectin Fc chimera (2 µg/mL) binding to murine PMN
[10] = target: recombinant human P-selectin Fc chimera (human) (UniProt P16109); test: flow cytometry; inhibition of human P-selectin Fc chimera binding to human peripheral blood monocytes
[11] = target: recombinant human P-selectin Fc chimera (human) (UniProt P16109); test: comparator value given with the Biacore results; method not stated

recombinant human P-selectin Fc chimera (human), sequence (P16109 42-771, change not shown): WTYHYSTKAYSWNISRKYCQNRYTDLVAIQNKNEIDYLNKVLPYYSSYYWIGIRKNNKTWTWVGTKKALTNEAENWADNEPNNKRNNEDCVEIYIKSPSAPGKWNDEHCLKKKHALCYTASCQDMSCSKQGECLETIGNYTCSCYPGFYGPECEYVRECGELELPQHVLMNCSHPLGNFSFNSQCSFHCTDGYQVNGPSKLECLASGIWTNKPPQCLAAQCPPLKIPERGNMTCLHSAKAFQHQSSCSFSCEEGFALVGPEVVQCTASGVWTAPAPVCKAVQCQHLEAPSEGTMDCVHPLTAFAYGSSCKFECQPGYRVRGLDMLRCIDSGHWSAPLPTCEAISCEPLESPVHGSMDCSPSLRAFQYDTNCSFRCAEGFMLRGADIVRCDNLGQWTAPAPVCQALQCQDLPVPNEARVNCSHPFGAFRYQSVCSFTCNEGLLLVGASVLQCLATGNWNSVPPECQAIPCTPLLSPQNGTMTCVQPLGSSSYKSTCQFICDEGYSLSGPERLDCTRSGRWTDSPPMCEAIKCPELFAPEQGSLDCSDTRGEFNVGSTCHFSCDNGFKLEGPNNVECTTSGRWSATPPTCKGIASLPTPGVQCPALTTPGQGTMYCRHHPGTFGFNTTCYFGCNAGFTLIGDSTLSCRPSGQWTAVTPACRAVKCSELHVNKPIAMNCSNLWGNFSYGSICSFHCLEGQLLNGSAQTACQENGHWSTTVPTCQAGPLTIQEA
recombinant mouse P-selectin Fc chimera (mouse), sequence (Q01102 42-709, stated change not applied): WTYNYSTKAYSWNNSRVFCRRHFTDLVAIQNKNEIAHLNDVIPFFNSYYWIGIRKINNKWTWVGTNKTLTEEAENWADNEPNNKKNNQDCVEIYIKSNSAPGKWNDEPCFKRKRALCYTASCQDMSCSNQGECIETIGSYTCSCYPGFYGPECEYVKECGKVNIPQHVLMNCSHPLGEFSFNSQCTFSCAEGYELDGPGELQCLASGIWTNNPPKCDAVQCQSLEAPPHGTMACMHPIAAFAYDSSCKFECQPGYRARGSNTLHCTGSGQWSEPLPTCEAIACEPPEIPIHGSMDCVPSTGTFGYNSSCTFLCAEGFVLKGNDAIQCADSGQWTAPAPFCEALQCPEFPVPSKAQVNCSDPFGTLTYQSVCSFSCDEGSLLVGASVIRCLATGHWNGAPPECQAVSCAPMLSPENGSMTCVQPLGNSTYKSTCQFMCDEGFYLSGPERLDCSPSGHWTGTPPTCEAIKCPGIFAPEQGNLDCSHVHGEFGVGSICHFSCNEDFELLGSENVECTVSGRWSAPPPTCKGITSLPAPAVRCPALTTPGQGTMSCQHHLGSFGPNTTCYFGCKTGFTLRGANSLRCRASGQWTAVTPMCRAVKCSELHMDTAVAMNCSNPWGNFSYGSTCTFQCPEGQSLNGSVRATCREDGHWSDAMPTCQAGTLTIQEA
recombinant human L-selectin Fc chimera (human), sequence (P14151 39-332, change not shown): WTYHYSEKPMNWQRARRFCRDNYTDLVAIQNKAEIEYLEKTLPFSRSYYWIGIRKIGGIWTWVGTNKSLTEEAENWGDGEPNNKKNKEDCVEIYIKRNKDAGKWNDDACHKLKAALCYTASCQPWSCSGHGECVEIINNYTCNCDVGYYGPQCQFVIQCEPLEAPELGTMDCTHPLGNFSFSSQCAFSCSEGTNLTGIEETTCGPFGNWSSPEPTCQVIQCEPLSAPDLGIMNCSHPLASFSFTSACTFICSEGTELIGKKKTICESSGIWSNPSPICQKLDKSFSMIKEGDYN
recombinant mouse L-selectin Fc chimera (mouse), sequence (P18337 39-332, change not shown): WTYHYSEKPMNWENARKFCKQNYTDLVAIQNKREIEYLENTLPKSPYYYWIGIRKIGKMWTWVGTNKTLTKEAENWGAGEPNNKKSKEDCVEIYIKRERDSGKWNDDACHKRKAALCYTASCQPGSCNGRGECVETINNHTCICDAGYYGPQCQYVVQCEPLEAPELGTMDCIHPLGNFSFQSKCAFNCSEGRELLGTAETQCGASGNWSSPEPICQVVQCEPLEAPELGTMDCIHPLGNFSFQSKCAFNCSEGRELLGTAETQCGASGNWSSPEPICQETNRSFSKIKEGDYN

| Substance | Kd [1] | Kd [2] | mean leukocyte rolling velocity (intravital microscopy, murine cremaster venules, GSnP-6 IV) (selectins on endothelium) | IC50 [3] | IC50 [4] | IC50 [5] | fold difference of Kd against human P-selectin [6] | kon [6] | kon [7] | IC50 [8] | IC50 [9] | IC50 [10] | Kd [11] |
| --- | --- | --- | --- | --- | --- | --- | --- | --- | --- | --- | --- | --- | --- |
| GSnP-6 (peptide) | 0.022 µM | 0.186 µM | 74.9 µm/s | 30 µM | 8 µM | > 50 µM | 9 fold | 49000 M⁻¹ s⁻¹ | 310000 M⁻¹ s⁻¹ | 30 µM | 15 µM | 30 µM | – |
| native PSGL-1 (from UniProt Q14242 42-412) (ligand) | – | – | – | – | – | – | – | – | – | – | – | – | 0.073 µM |
